What follows are sequences tested on MS2 coat protein (assay: apparent KD of MS2 coat protein, switch ON state; designed switch direction (-1 OFF switch, 1 ON switch): 1; higher = weaker reporter binding). Conditions: FMN input: 0 or 200 uM; Eterna round: R93 (includes R88 designs).
How it was run: (§1)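 Designed RNA switches, transcribed on-chip from Illumina sequencing clusters, were titrated with SNAP-549-labelled MS2 coat protein from 0.7 or 1.5 nM to 3 µM in twofold steps. The solution was 100 mM Tris-HCl pH 7.5, 80 mM KCl, 4 mM MgCl2, with constant ligand or without it. Apparent KD is the median over each design's normalised cluster binding-curve fits.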

| Sequence | apparent KD of MS2 coat protein |
| --- | --- |
| GAAAAACAUGAGGAUCACCCAUGUGAUAAUAUGGGAGGAUAUACGAAGACGAAAGUCAAAGUAGAAGGCCUAAAAG [Garnet 36] | 57.5 nM |
| AAAAAACAUGAGGAUCACCCAUGUAAAAAAAUGGGAGGAUAUACAAAAACGAAAGAAAAAGUAGAAGGCCUGAAAA [same state 7] | 37.7 nM |
| AGAAAACAUGAGGAUCACCCAUGUAGAAAUAUGGGAGGAUAUACGAAGACGAAAGUCAAAGUAGAAGGCCUAAAAG [Mat - Same State 1 - Eli mod - D102] | 22 nM |
| UGAGGACAUGAGGAUCACCCAUGUAGGCCACAAUCAGGAUAUGCAUUAAGGUACCUAAGAGUAGAAGGGAUUCGAG [SameState_Neo] | 34.9 nM |
| CCGAUGGUAUACUAGGAUAUGGGCGCCCUUACAUGAGGAUCACCCAUGUUAUCACAAAUCCGCGGCCAGAAGGAGUUCAUGGGAG [Ustiririra] | 62.8 nM |
| GAAAAACAUGAGGAUCACCCAUGUAGAAAUAUGGGAGGAUAUACAAAGUCGAAAGACAAAGUAGAAGGCCUAAAAG [Mat - Same State 1 - Eli mod - D2] | 24.6 nM |
| AGAAAUAAAAGUCAGGAUAUGGGUAAGAAAACAUGAGGAUCACCCAUGUAAAAGAAAAUAAAAAACCAGAAGGGACAAAAUAAAG [Reversing G segment in JL's winner (80%) Variant 4] | 30.1 nM |
| AGAAAUAAAAGAGAGGAUAUCCAAAAGAAAACAUGAGGAUCACCCAUGUAAAAGAAAAUAAAAUGGGAGAAGGCUCGAAAUAAGA [Topaz 21] | 18.3 nM |
| AAAAGACAUGAGGAUCACCCAUGUGAAAACGUGCGAGGAUAUGUAUGGAAACUAUACUGUACAGAAGGCGCAUGUC [SS1 - 81] | 19.9 nM |
| GAAGAACAUGAGGAUCACCCAUGUGAGAACAUGGGAGGAUAUACGAGGACGAAAGUCAAAGUAGAAGGCCUAAGAG [Garnet 87] | 104 nM |
| AAAAACACAGUGCAGGAUAUGGUAAUAGUCACAUGAGGAUCACCCAUGUUCUUUUAUAAGAACGAUCAGAAGGGCGGUGAAAAAA [Mat - Same state - Malcolm Mod - D114] | 241 nM |
| AGGAGACAUGAGGAUCACCCAUGUGAGAAGAGGCGAGGAUAUCGAAAGAAAGAAGAGAAACGAGAAGGCGCGAGAG [salish99-SS1-025] | 28.4 nM |
| AUAAAACAUGAGGAUCACCCAUGUCCGACAAAUCAAGGAUAUGAUAGCCAAACCAGGCCGUUAGAAGGUGAAAGAA [Edgeza] | 276 nM |

Each sequence was assayed on MS2 coat protein (assay: apparent KD of MS2 coat protein, switch OFF state (with FMN for OFF switches, without FMN for ON switches); designed switch direction (-1 OFF switch, 1 ON switch): 1; higher = weaker reporter binding). Conditions: FMN input: 0 or 200 uM; Eterna round: R93 (includes R88 designs).
How it was run: as §1

| Sequence | apparent KD of MS2 coat protein |
| --- | --- |
| AGGAAACAUGAGGAUCACCCAUGUAAAAAUAUGGGAGGAUAUUGAAAGACGAAAGUCAAACAAGAAGGCCUAAAAG [Garnet 21] | 128 nM |
| GAAAUACAUGAGGAUCACCCAUGUUAGGUGAUUCAAGGAUAUCAAGGUAAAUAAAAACCUUGAGAAGGUGAAUAAA [JR_SS001_Sub205] | 163 nM |
| AUAAAACAUGAGGAUCACCCAUGUAAAAAUAUGGGAGGAUAUACGAAAUAAAAUAAAUACGUAGAAGGCCUAAAAA [SS! MT 20] | 111 nM |
| GAAAUACAUGAGGAUCACCCAUGUUAGGUGGAUCAAGGAUAUCAAGGUAAAUAAAAACCUUGAGAAGGUGAAUAAA [JR_SS001_Sub204] | 141 nM |
| AAAUAAAGAUACUAGGAUAUCCCGUGAGGUACAUGAGGAUCACCCAUGUGUAACGAACUCCCGCGGGAGAAGGAGUUGCACACGA [Inanuserra] | 52.4 nM |
| AACAGGAAGAGAGAGGAUAUCCAAAGGAAAACAUGAGGAUCACCCAUGUAAAAGGUAGGAAAUUGGGAGAAGGCUCAAGAGAGAG [salish99-ss2-089] | 47.3 nM |
| AGAAAUAAAAGAGAGGAUAUCCAAAAGAAAACAUGAGGAUCACCCAUGUAAAAGAAAAUAAAAUGGGAGAAGGCUCAAUAAAAGA [Modifying Jieux] | 42 nM |
| UAACGCGCAUGCAAGGAUAUGUGCAGAGCUACAUGAGGAUCACCCAUGUGGUUAUGCUAUUGAAAACAGAAGGUGCCCUCGCUCA [Ceties] | 16.8 nM |
| UUUAGUUGCGGGCAGGAUAUGUAUUAAAAUACAUGAGGAUCACCCAUGUGCGGGUAUAACACCCGACAGAAGGGCCAAUCGCGAC [Laonerce] | 305 nM |
| AAAAAAAAAAGAGAGGAUAUCCAAAAAAAAACAUGAGGAUCACCCAUGUAAAAAAAAAAAAAAUGGGAGAAGGCUCAAAAAAAAAA [Helter Skelter 1] | 54.8 nM |
| AGAAAUAAAAGGCAGGAUAUCCAAAAGAAAACAUGAGGAUCACCCAUGUAAAAGAAAAAAAAAUGGGAGAAGGGCCAAAUAAAGA [Mat - Same State 2 - Eli mod - D90] | 21.4 nM |
| GGGAGACAUGAGGAUCACCCAUGUGAGAAGAGGCGAGGAUAUCGAAAGAAAGAAGAGAAACGAGAAGGCGCGAGUG [salish99-SS1-058] | 82 nM |
| AAAAAACAUGAGGAUCACCCAUGUCAAAAGACGUGAGGAUAUGUACAGACUUCGGUCUGUACAGAAGGCAUGUAAA [SS1 - 1053] | 144 nM |
| CGGCUACAUGAGGAUCACCCAUGUCAGCCGAGGGCAGGAUAUGUGGUUCAUUCUCAAGCAACAGAAGGGUCAAAAG [Istiacedi] | 18.7 nM |
| GAAAAACAUGAGGAUCACCCAUGUAAUACAACAUCAGGAUAUUGAUUUUACUAUGUAUUGCAAGAAGGGAUGAAAG [Mat - Same State 1 - Hyphema mod - D100] | 42.6 nM |
| GAAAAACAUGAGGAUCACCCAUGUGAUAAUAUGGGAGGAUAUACGAAGACGAAAGUCAAAGUAGAAGGCCUAAAAG [Garnet 36] | 81.7 nM |
| AAAAAACAUGAGGAUCACCCAUGUAAAAAAAUGGGAGGAUAUACAAAAACGAAAGAAAAAGUAGAAGGCCUGAAAA [same state 7] | 159 nM |
| AGAAAACAUGAGGAUCACCCAUGUAGAAAUAUGGGAGGAUAUACGAAGACGAAAGUCAAAGUAGAAGGCCUAAAAG [Mat - Same State 1 - Eli mod - D102] | 69.8 nM |
| UGAGGACAUGAGGAUCACCCAUGUAGGCCACAAUCAGGAUAUGCAUUAAGGUACCUAAGAGUAGAAGGGAUUCGAG [SameState_Neo] | 30.8 nM |
| CCGAUGGUAUACUAGGAUAUGGGCGCCCUUACAUGAGGAUCACCCAUGUUAUCACAAAUCCGCGGCCAGAAGGAGUUCAUGGGAG [Ustiririra] | 151 nM |
| GAAAAACAUGAGGAUCACCCAUGUAGAAAUAUGGGAGGAUAUACAAAGUCGAAAGACAAAGUAGAAGGCCUAAAAG [Mat - Same State 1 - Eli mod - D2] | 67.1 nM |
| AGAAAUAAAAGUCAGGAUAUGGGUAAGAAAACAUGAGGAUCACCCAUGUAAAAGAAAAUAAAAAACCAGAAGGGACAAAAUAAAG [Reversing G segment in JL's winner (80%) Variant 4] | 88.6 nM |
| AGAAAUAAAAGAGAGGAUAUCCAAAAGAAAACAUGAGGAUCACCCAUGUAAAAGAAAAUAAAAUGGGAGAAGGCUCGAAAUAAGA [Topaz 21] | 107 nM |
| AAAAGACAUGAGGAUCACCCAUGUGAAAACGUGCGAGGAUAUGUAUGGAAACUAUACUGUACAGAAGGCGCAUGUC [SS1 - 81] | 24.3 nM |
| GAAGAACAUGAGGAUCACCCAUGUGAGAACAUGGGAGGAUAUACGAGGACGAAAGUCAAAGUAGAAGGCCUAAGAG [Garnet 87] | 29.8 nM |
| AAAAACACAGUGCAGGAUAUGGUAAUAGUCACAUGAGGAUCACCCAUGUUCUUUUAUAAGAACGAUCAGAAGGGCGGUGAAAAAA [Mat - Same state - Malcolm Mod - D114] | 155 nM |
| AGGAGACAUGAGGAUCACCCAUGUGAGAAGAGGCGAGGAUAUCGAAAGAAAGAAGAGAAACGAGAAGGCGCGAGAG [salish99-SS1-025] | 37.4 nM |
| AUAAAACAUGAGGAUCACCCAUGUCCGACAAAUCAAGGAUAUGAUAGCCAAACCAGGCCGUUAGAAGGUGAAAGAA [Edgeza] | 147 nM |

Source: the supplement of paper PMC9170038
